Measurements taken from publication PMC11482907 (bioRxiv, 2024).

Molecular target: the molecule itself
Assay: cryo-EM structure

B1: HCMV UL141 soluble ectodomain (residues 30-278) with C-terminal 8X His-Tag (domain or fragment)
chain: SFPFATADIAEKMWAENYETTSPAPVLVAEGEQVTIPCTVMTHSWPMVSIRARFCRSHDGSDELILDAVKGHRLMNGLQYRLPYATWNFSQLHLGQIFSLTFNVSTDTAGMYECVLRNYSHGLIMQRFVILTQLETLSRPDEPCCTPALGRYSLGDQIWSPTPWRLRNHDCGMYRGFQRNYFYIGRADAEDCWKPACPDEEPDRCWTVIQRYRLPGDCYRSQPHPPKFLPVTPAPPADIDTGMSPWATR
stoichiometry N: 2
